Laboratory results taken from IntAct's records for PubMed 17525340.

B1: BRCA1-A complex subunit Abraxas 1 (Homo sapiens), Q6UWZ7 (parent)
chain: MEGESTSAVLSGFVLGALAFQHLNTDSDTEGFLLGEVKGEAKNSITDSQMDDVEVVYTIDIQKYIPCYQLFSFYNSSGEVNEQALKKILSNVKKNVVGWYKFRRHSDQIMTFRERLLHKNLQEHFSNQDLVFLLLTPSIITESCSTHRLEHSLYKPQKGLFHRVPLVVANLGMSEQLGYKTVSGSCMSTGFSRAVQTHSSKFFEEDGSLKEVHKINEMYASLQEELKSICKKVEDSEQAVDKLVKDVNRLKREIEKRRGAQIQAAREKNIQKDPQENIFLCQALRTFFPNSEFLHSCVMSLKNRHVSKSSCNYNHHLDVVDNLTLMVEHTDIPEASPASTPQIIKHKALDLDDRWQFKRSRLLDTQDKRSKADTGSSNQDKASKMSSPETDEEIEKMKGFGEYSRSPTF
partner: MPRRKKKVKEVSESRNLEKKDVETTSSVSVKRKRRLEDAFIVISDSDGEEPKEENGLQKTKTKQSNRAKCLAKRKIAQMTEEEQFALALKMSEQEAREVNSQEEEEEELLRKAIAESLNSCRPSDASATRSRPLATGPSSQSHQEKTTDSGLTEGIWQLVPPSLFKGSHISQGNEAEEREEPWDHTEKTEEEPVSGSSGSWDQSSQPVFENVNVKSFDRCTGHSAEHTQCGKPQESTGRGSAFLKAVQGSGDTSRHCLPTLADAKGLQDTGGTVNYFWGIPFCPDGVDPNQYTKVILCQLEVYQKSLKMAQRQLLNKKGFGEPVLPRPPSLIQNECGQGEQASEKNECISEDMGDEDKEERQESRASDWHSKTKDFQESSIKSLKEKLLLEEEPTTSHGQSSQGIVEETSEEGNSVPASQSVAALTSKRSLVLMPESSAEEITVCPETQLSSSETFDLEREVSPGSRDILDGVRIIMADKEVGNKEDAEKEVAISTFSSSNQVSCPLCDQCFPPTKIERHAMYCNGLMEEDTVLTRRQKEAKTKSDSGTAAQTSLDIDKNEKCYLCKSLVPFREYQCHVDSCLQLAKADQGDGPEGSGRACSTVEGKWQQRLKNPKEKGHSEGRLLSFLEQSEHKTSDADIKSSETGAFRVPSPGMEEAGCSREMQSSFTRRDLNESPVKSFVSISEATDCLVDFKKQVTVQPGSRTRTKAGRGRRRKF
B2: BRCA1-A complex subunit Abraxas 1 (Homo sapiens), Q6UWZ7 (parent)
chain: B1 chain

Variants of: B1
Conditions: with uimc1_human UIMC1, Q96RL1

| Variant | effect of a mutation on the interaction |
| --- | --- |
| MEGESTSAVLSGFVLGALAFQHLNTDSDTEGFLLGEVKGEAKNSITDSQMDDVEVVYTIDIQKYIPCYQLFSFYNSSGEVNEQALKKILSNVKKNVVGWYKFRRHSDQIMTFRERLLHKNLQEHFSNQDLVFLLLTPSIITESCSTHRLEHSLYKPQKGLFHRVPLVVANLGMSEQLGYKTVSGSCMSTGFSRAVQTHSSKFFEEDGSLKEVHKINEMYASLQEELKSICKKVEDSEQAVDKLVKDVNRLKREIEKRRGAQIQAAREKNIQKDPQENIFLCQALRTFFPNSEFLHSCVMSLKNRHVSKSSCNYNHHLDVVDNLTLMVEHTDIPEASPASTPQIIKHKALDLDDRWQFKRSRLLDTQDKRSKADTGSSNQDKASKMSSPETDEEIEKMKGFGEYSRAPTF [S406A] | disrupting interaction |

Variants of: B2
Conditions: with brca1_human BRCA1, P38398
Sequence of brca1_human BRCA1, P38398 (P38398 whole entry, looked up): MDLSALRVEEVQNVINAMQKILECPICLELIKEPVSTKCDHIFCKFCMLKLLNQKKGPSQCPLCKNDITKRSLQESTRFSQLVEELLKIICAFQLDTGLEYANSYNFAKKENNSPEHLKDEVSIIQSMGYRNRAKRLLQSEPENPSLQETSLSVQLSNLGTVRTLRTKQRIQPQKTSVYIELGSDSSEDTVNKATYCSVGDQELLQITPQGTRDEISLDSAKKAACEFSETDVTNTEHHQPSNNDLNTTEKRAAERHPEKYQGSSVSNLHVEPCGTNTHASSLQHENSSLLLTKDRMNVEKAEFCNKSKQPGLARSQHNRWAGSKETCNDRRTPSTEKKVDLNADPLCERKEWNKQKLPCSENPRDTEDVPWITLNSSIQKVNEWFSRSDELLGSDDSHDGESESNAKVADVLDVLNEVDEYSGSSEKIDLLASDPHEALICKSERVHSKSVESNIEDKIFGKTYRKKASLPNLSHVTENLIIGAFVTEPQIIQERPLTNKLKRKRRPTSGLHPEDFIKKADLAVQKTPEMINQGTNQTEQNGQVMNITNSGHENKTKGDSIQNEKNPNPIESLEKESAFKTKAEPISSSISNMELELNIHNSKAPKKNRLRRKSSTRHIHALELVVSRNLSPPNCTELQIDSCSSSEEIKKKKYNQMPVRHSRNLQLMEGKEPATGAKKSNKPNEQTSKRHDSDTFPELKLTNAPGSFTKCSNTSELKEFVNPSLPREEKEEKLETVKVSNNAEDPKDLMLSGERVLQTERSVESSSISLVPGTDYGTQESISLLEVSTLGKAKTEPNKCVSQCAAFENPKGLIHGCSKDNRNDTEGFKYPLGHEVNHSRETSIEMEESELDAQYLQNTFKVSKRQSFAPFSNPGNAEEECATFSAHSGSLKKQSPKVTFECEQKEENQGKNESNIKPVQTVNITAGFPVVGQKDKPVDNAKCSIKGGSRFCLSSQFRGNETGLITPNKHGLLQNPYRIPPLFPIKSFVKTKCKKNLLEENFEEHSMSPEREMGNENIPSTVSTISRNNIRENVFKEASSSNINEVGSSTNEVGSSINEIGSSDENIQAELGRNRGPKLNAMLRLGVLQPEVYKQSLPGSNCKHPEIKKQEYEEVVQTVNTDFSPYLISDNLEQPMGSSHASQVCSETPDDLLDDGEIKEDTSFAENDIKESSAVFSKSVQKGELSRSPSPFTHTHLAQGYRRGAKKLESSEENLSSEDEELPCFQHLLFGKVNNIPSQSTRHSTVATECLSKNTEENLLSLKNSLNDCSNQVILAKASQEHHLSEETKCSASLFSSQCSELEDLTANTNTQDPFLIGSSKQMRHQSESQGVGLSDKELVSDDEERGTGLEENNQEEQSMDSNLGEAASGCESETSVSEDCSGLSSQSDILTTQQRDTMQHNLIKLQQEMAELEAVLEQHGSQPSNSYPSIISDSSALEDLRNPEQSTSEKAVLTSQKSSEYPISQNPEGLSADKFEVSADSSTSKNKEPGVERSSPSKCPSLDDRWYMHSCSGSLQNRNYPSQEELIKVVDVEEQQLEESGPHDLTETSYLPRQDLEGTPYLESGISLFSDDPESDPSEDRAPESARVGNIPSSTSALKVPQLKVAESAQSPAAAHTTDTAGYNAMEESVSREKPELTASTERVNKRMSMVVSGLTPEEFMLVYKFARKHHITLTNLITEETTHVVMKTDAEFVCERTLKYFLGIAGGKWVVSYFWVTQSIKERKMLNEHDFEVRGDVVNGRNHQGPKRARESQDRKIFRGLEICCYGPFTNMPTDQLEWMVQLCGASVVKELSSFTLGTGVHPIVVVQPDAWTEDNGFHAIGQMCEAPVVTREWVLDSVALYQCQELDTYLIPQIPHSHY

| Variant | effect of a mutation on the interaction |
| --- | --- |
| MEGESTSAVLSGFVLGALAFQHLNTDSDTEGFLLGEVKGEAKNSITDSQMDDVEVVYTIDIQKYIPCYQLFSFYNSSGEVNEQALKKILSNVKKNVVGWYKFRRHSDQIMTFRERLLHKNLQEHFSNQDLVFLLLTPSIITESCSTHRLEHSLYKPQKGLFHRVPLVVANLGMSEQLGYKTVSGSCMSTGFSRAVQTHSSKFFEEDGSLKEVHKINEMYASLQEELKSICKKVEDSEQAVDKLVKDVNRLKREIEKRRGAQIQAAREKNIQKDPQENIFLCQALRTFFPNSEFLHSCVMSLKNRHVSKSSCNYNHHLDVVDNLTLMVEHTDIPEASPASTPQIIKHKALDLDDRWQFKRSRLLDTQDKRSKADTGSSNQDKASKMSSPETDEEIEKMKGFGEYSRAPTF [S406A] | disrupting interaction |

Variants of: B2
Conditions: with brca1_human BRCA1, P38398
Remark: another data set of the same source

| Variant | effect of a mutation on the interaction |
| --- | --- |
| MEGESTSAVLSGFVLGALAFQHLNTDSDTEGFLLGEVKGEAKNSITDSQMDDVEVVYTIDIQKYIPCYQLFSFYNSSGEVNEQALKKILSNVKKNVVGWYKFRRHSDQIMTFRERLLHKNLQEHFSNQDLVFLLLTPSIITESCSTHRLEHSLYKPQKGLFHRVPLVVANLGMSEQLGYKTVSGSCMSTGFSRAVQTHSSKFFEEDGSLKEVHKINEMYASLQEELKSICKKVEDSEQAVDKLVKDVNRLKREIEKRRGAQIQAAREKNIQKDPQENIFLCQALRTFFPNSEFLHSCVMSLKNRHVSKSSCNYNHHLDVVDNLTLMVEHTDIPEASPASTPQIIKHKALDLDDRWQFKRSRLLDTQDKRSKADTGSSNQDKASKMSSPETDEEIEKMKGFGEYSRAPTF [S406A] | increasing interaction |
